These results are taken from doi:10.1101/2023.10.05.561050 (bioRxiv, 2023).

What all share (experiment): PIE-FCCS
The target in data set [1] is Myr-GCN4-EGFRk-FP (multimer control).
The target of data set [2] is Myr-GCN4-FP (dimer control).
The data set “PIE-FCCS” concerns the molecule itself.

In turn, Myr-GCN4-EGFRk-FP (multimer control) came in with a fc (median cross-correlation value) in data set [1] of 0.23.
In the case of Myr-GCN4-FP (dimer control), the fc (median cross-correlation value) in data set [2] was found to be 0.14.

B1: Myr-ICD-ΔS (EphA2 intracellular domain without the SAM domain, AA 559-882, with a membrane localization sequence) (domain or fragment)
chain: HRRRKNQRARQSPEDVYFSKSEQLKPLKTYVDPHTYEDPNQAVLKFTTEIHPSCVTRQKVIGAGEFGEVYKGMLKTSSGKKEVPVAIKTLKAGYTEKQRVDFLGEAGIMGQFSHHNIIRLEGVISKYKPMMIITEYMENGALDKFLREKDGEFSVLQLVGMLRGIAAGMKYLANMNYVHRDLAARNILVNSNLVCKVSDFGLSRVLEDDPEATYTTSGGKIPIRWTAPEAISYRKFTSASDVWSFGIVMWEVMTYGERPYWELSNHEVMKAINDGFRLPTPMDCPSAIYQLMMQCWQQERARRPKFADIVSILDKLIRAPDSLK
modifications: N-terminal myristoylation of the c-Src-derived peptide
Regarding B1, the “stoichiometry N” value in “PIE-FCCS” is 2.
